The results in this text go back to patent US20150203577A1 (Chugai, published 2015).

In one experiment the target is T1, mouse FcγRIII (mouse, UniProt P08508 31-215).
T1 construct: also called mFcγRIII; mFcgRIII
T1 chain: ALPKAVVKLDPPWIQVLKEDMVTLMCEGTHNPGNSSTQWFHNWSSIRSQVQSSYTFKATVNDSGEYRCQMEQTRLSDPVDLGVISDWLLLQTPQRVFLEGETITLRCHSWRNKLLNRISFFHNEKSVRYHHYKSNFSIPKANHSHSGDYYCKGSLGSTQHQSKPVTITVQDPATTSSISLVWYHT
Put plainly: SPR Biacore T200. An excerpt: (§1) The antibody H chain variable region used was the variable region H237 (SEQ ID NO: 1) of the H chain VH3-IgG1 of the anti-IL-6 receptor antibody Fv4-IgG1 described in WO2009/125825. The antibody L chain commonly used was the L chain MRAL-k0 (SEQ ID NO: 2) of the anti-IL-6 receptor antibody tocilizumab. The aforementioned 11 variants were used as templates to introduce the alteration. These variants were expressed and purified by the method of Reference Example 1 and evaluated for their binding to mFcγRII and mFcγRIII by the method of Reference Example 2 using Biacore T200.
Each altered antibody was analyzed for its interaction with each Fcγ receptor prepared above using Biacore T100 (GE Healthcare Japan Corp.), Biacore T200 (GE Healthcare Japan Corp.), Biacore A100, or Biacore 4000. The running buffer used was HBS-EP+ (GE Healthcare Japan Corp.). The assay temperature was set to 25° C. […]
In order to calculate the KD value of each altered antibody for FcγR, kinetic analysis was conducted according to the following method: first, the antibody of interest was captured onto any of these chips and allowed to interact with mFcγR diluted with a running buffer. […] From these values, the dissociation constant KD (mol/L) was calculated.
(SPR reads the build-up and loss of mass on a sensor chip optically.)

The target in experiment [1] is T2, mouse FcγRIII extracellular domain, C-terminal His tag (mouse, UniProt P08508 31-215).
T2 construct: Whole entry named; also called mFcγRIII; mFcgRIII
T2 chain: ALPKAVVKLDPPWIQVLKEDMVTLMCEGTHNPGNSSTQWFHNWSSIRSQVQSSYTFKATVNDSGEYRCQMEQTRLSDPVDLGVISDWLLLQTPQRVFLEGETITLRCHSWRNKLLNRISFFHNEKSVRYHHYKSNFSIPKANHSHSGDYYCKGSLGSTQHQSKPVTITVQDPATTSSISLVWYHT
Put plainly: SPR (Biacore T200).
From the text: as §1, with “7” for “11”, “substitute the amino acids at the alteration sites by the amino acids before” for “introduce”
(§2) Each altered antibody was analyzed for its interaction with each Fcγ receptor prepared above using Biacore T100 (GE Healthcare Japan Corp.), Biacore T200 (GE Healthcare Japan Corp.), Biacore A100, or Biacore 4000. The running buffer used was HBS-EP+ (GE Healthcare Japan Corp.). The assay temperature was set to 25° C. The sensor chips used were chips prepared by immobilizing Protein L (ACTIGEN or BioVision) onto Series S Sensor Chip CM5 (GE Healthcare Japan Corp.) or Series S Sensor Chip CM4 (GE Healthcare Japan Corp.) by the amine coupling method.

The target of experiment [2] is T3, mouse FcγRII extracellular domain, C-terminal His tag (mouse, UniProt P08101 30-210).
T3 construct: Whole entry named; also called mFcγRII; mFcgRII
T3 sequence: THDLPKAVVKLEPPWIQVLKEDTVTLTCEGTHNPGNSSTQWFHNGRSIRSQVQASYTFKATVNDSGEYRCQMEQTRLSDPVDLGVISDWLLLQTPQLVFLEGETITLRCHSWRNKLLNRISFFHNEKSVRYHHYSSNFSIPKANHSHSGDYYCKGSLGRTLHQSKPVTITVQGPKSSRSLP
Put plainly: SPR (Biacore T200); KD of H237-mIgG1/MRAL-k0 / KD of variant.
From the text: as §1, with “7” for “11”, “substitute the amino acids at the alteration sites by the amino acids before” for “introduce”
as §2

B1: H237-MB697/MRAL-k0 (antibody, mouse IgG1, kappa)
heavy: QVQLQESGPGLVKPSETLSLTCAVSGHSISHDHAWSWVRQPPGEGLEWIGFISYSGITNYNPSLQGRVTISRDNSKNTLYLQMNSLRAEDTAVYYCARSLARTTAMDYWGEGTLVTVSSAKTTPPSVYPLAPGSAAQTNSMVTLGCLVKGYFPEPVTVTWNSGSLSSGVHTFPAVLQSDLYTLSSSVTVPSSTWPSETVTCNVAHPASSTKVDKKIVPRDCGCKPCICEPPEVEFVFIFPPKPKDVLTITLTPKVTCVVVDISKDDPEVQFSWFVDDVEVHTAQTQPREEQFNSTFRSVSELPIMHQDWLNGKEFKCRVNSAAFPAPIEKTISKTKGRPKAPQVYTIPPPKEQMAKDKVSLTCMITDFFPEDITVEWQWNGQPAENYKNTQPIMDTDGSYFVYSKLNVQKSNWEAGNTFTCSVLHEGLHNHHTEKSLSHSPGK
light: not shown
notes: copies: 2 + 2
As to B1, the binding result with mouse FcγRIII is on record as “no binding”.

B2: H237-MB701/MRAL-k0 (antibody, mouse IgG1, kappa)
heavy: QVQLQESGPGLVKPSETLSLTCAVSGHSISHDHAWSWVRQPPGEGLEWIGFISYSGITNYNPSLQGRVTISRDNSKNTLYLQMNSLRAEDTAVYYCARSLARTTAMDYWGEGTLVTVSSAKTTPPSVYPLAPGSAAQTNSMVTLGCLVKGYFPEPVTVTWNSGSLSSGVHTFPAVLQSDLYTLSSSVTVPSSTWPSETVTCNVAHPASSTKVDKKIVPRDCGCKPCICEVPEEEFVFIFPPKPKDVLTITLTPKVTCVVVDISKDDPEVQFSWFVDDVEVHTAQTQPREEQFNSTFRSVSELPIMHQDWLNGKEFKCRVNSAAFPAPIEKTISKTKGRPKAPQVYTIPPPKEQMAKDKVSLTCMITDFFPEDITVEWQWNGQPAENYKNTQPIMDTDGSYFVYSKLNVQKSNWEAGNTFTCSVLHEGLHNHHTEKSLSHSPGK
light: not shown
notes: copies: 2 + 2
For B2, the binding result with mouse FcγRIII is listed as “no binding”.

B3: H237-MB701/MRAL-k0 (antibody, mouse IgG1, kappa)
heavy: QVQLQESGPGLVKPSETLSLTCAVSGHSISHDHAWSWVRQPPGEGLEWIGFISYSGITNYNPSLQGRVTISRDNSKNTLYLQMNSLRAEDTAVYYCARSLARTTAMDYWGEGTLVTVSSAKTTPPSVYPLAPGSAAQTNSMVTLGCLVKGYFPEPVTVTWNSGSLSSGVHTFPAVLQSDLYTLSSSVTVPSSTWPSETVTCNVAHPASSTKVDKKIVPRDCGCKPCICEVPEEEFVFIFPPKPKDVLTITLTPKVTCVVVDISKDDPEVQFSWFVDDVEVHTAQTQPREEQFNSTFRSVSELPIMHQDWLNGKEFKCRVNSAAFPAPIEKTISKTKGRPKAPQVYTIPPPKEQMAKDKVSLTCMITDFFPEDITVEWQWNGQPAENYKNTQPIMDTDGSYFVYSKLNVQKSNWEAGNTFTCSVLHEGLHNHHTEKSLSHSPGK
light: not shown
notes: copies: 2 + 2
As for B3, the binding result in experiment [1] is reported as “no binding”. The “relative mFcγRII-binding activity (mIgG1 = 1)” value in experiment [2] was determined as 0.187 fold.
